As usually defined, the stoichiometry N is the number of molecules, sites or subunits per partner or assembly. The Kd is the free concentration of one partner at which half of the binding sites on the other are occupied at equilibrium, for simple one-to-one binding.

The target in series [1] is HUWE1 (3951–4374), crystallization construct with the N-terminal expression tag (human) (UniProt Q7Z6Z7). Briefly: SEC-MALS; proteins injected at high concentration (~350 to 400 μM; highest point of Figure 3A, Figures 4A, 4F, 4G, Table 2); Superdex 200 10/300 GL, room temperature, 20 mM HEPES pH 8.0, 250 mM NaCl, 1 mM EDTA, 5 mM DTT. (In general: SEC sorts molecules by how far they enter the pores of the column.)

Series [2] addresses HUWE1 (3951–4374), untagged (human) (UniProt Q7Z6Z7). Briefly: AUC; sedimentation equilibrium, dimer to monomers (monomer-dimer self-association model, Sedphat); 10 µM protein, 4°C, 10 mM HEPES pH 8.0, 200 mM NaCl, 1 mM EDTA, 1 mM β-mercaptoethanol; 9000, 13,000 and 17,000 rpm.
Series [3] deals with T1, HUWE1 (3843–4374) (human, UniProt Q7Z6Z7 3843-4374).
T1 construct: source: LOBSTR RIL cells, purified (IMAC, gel filtration)
T1 sequence (looked up): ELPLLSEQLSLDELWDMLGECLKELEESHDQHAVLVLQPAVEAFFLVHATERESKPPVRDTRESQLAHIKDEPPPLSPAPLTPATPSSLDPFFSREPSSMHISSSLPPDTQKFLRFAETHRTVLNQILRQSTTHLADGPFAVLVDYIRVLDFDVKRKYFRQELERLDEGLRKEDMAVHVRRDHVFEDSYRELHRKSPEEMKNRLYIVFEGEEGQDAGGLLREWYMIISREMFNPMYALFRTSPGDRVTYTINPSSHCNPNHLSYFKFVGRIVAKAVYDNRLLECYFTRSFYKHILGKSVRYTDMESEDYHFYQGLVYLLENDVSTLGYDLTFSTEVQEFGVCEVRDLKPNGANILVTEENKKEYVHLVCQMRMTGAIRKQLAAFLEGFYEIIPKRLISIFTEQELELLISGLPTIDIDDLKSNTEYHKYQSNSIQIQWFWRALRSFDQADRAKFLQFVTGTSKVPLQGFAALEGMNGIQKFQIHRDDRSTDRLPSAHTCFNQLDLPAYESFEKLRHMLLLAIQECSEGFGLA
Briefly: SEC; HUWE1 constructs at 120 μM without and with a four-fold molar excess of p14ARF (45-75); 10% DMSO; Superdex 200 Increase 3.2/300, 4°C; co-elution of the peptide shown by SDS-PAGE. As to conditions: both partners purified.

The target of series [4] is T2, HUWE1 (3951–4374), untagged (human, UniProt Q7Z6Z7 3951-4374).
T2 construct: Monomer MW 49.752 kDa (AUC methods); source: LOBSTR RIL cells, purified (IMAC, TEV protease cleavage, second IMAC, gel filtration); not shown: His6, N-terminal, cleaved
T2 sequence (looked up): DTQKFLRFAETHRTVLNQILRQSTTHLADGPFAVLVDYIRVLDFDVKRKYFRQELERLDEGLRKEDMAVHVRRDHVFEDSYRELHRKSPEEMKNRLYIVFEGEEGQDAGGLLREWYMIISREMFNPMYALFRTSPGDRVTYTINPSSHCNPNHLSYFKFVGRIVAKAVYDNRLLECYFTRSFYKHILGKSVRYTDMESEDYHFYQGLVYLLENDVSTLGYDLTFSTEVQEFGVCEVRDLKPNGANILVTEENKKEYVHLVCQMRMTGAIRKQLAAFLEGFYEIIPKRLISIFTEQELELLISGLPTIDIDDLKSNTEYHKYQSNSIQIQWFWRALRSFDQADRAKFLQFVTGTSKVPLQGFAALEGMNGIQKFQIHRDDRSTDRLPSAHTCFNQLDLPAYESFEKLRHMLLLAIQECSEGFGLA
The experiment in a line: SEC; MBP-tagged activation segment (or MBP) and HUWE1 constructs, each alone at 120 μM and as a 1.5:1 molar mixture; Superdex 200 Increase 3.2/300, 4°C, 20 mM HEPES pH 8.0, 100 mM NaCl, 1 mM EDTA, 5 mM DTT. As to conditions: both partners purified.

Series [5] concerns the target T1, HUWE1 (3843–4374). The experiment in a line: SEC; as the SEC with p14ARF (45-75), but with p14ARF (45-64); result told only in one sentence of the methods, no data shown. The note with it: both partners purified.
Series [6] concerns the molecule itself. Briefly: SEC-MALS; proteins injected at high concentration (~350 to 400 μM; highest point of Figure 3A, Figures 4A, 4F, 4G, Table 2); Superdex 200 10/300 GL, room temperature, 20 mM HEPES pH 8.0, 250 mM NaCl, 1 mM EDTA, 5 mM DTT.

With “HUWE1 (3951–4374), crystallization construct with the N-terminal expression tag (from UniProt Q7Z6Z7 3951-4374) (domain or fragment)”, the stoichiometry N in series [1] amounted to 2.

In turn, “HUWE1 (3951–4374), untagged (from UniProt Q7Z6Z7 3951-4374) (domain or fragment)” gave a Kd in series [2] of 2900 nM.

B1: p14ARF-derived peptide (residues 45–75) (peptide, UniProt Q8N726 45-75, looked up)
peptide: LVLMLLRSQRLGQQPLPRRPGHDDGQRPSGG
notes: p14ARF, human, residues 45–75; also called p14ARF (45-75); p14ARF-peptide; source: synthetic peptide, bought: Elim Biopharm
On to B1, for which the binding result with HUWE1 (3843–4374) [3] is listed as “binds”.

B2: MBP-tagged activation segment of HUWE1 (residues 3843–3902) (domain or fragment, human, UniProt Q7Z6Z7 3843-3902, looked up)
chain: ELPLLSEQLSLDELWDMLGECLKELEESHDQHAVLVLQPAVEAFFLVHATERESKPPVRD
notes: pETM41: N-terminal TEV protease-cleavable MBP-tag, C-terminal 3C protease-cleavable His6-tag; source: E. coli BL21(DE3), purified (IMAC, gel filtration); not shown: MBP, N-terminal, kept; His6, C-terminal, kept
In the case of B2, in series [4], the binding result is given as “binds”.

B3: p14ARF-derived peptide (residues 45–64), unlabelled (peptide, UniProt Q8N726 45-64, looked up)
peptide: LVLMLLRSQRLGQQPLPRRP
notes: p14ARF, human, residues 45–64; also called p14ARF (45-64); source: synthetic peptide, bought: Elim Biopharm
With B3, in the series with HUWE1 (3843–4374) [5], the binding result is “binds”.

B4: HUWE1 (3896–4374) (domain or fragment, human, UniProt Q7Z6Z7 3896-4374, looked up)
chain: SKPPVRDTRESQLAHIKDEPPPLSPAPLTPATPSSLDPFFSREPSSMHISSSLPPDTQKFLRFAETHRTVLNQILRQSTTHLADGPFAVLVDYIRVLDFDVKRKYFRQELERLDEGLRKEDMAVHVRRDHVFEDSYRELHRKSPEEMKNRLYIVFEGEEGQDAGGLLREWYMIISREMFNPMYALFRTSPGDRVTYTINPSSHCNPNHLSYFKFVGRIVAKAVYDNRLLECYFTRSFYKHILGKSVRYTDMESEDYHFYQGLVYLLENDVSTLGYDLTFSTEVQEFGVCEVRDLKPNGANILVTEENKKEYVHLVCQMRMTGAIRKQLAAFLEGFYEIIPKRLISIFTEQELELLISGLPTIDIDDLKSNTEYHKYQSNSIQIQWFWRALRSFDQADRAKFLQFVTGTSKVPLQGFAALEGMNGIQKFQIHRDDRSTDRLPSAHTCFNQLDLPAYESFEKLRHMLLLAIQECSEGFGLA
notes: source: LOBSTR RIL cells, purified (IMAC, gel filtration)
Take B4: the “stoichiometry N” value in series [6] was found to be 2.

For the origin of these results see publication PMC5308896, “A conformational switch regulates the ubiquitin ligase HUWE1” (eLife, 2017).
